Laboratory results from paper PMC13388985 (Nature Communications, 2026).
No end group written: not given here.

T1: GST-tagged wild-type Af1521 macrodomain (UniProt O28751 1-192)
T1 sequence: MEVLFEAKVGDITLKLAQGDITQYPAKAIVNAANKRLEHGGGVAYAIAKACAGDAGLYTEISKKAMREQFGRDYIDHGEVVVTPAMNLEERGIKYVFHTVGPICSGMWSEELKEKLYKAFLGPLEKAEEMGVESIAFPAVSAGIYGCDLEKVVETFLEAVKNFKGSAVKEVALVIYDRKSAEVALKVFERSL

T2: GST-tagged Af1521-K35E/Y145R macrodomain (UniProt O28751 1-192, K35E | Y145R)
T2 sequence: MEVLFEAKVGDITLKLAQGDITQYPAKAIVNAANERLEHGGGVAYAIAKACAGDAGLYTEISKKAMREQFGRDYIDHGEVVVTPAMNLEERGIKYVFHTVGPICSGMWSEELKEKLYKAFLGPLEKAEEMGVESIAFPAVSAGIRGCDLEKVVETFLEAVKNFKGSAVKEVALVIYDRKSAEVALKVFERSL


What was measured:
[1] = molecular target: T1, GST-tagged wild-type Af1521 macrodomain; test: pull-down
[2] = molecular target: T2, GST-tagged Af1521-K35E/Y145R macrodomain; test: pull-down

Row | binding result [1] | binding result [2] | Binder
1 | binds | binds | GWTAR(ADP‑ribose)KSAEAGTAGK-NH2 [Synthetic peptide GWTARKSAEAGTAGK-amide with ADPr on Arg-5]
2 | binds | binds | GWTARKS(ADP‑ribose)AAAGTAGK-NH2 [Synthetic peptide GWTARKSAAAGTAGK-amide with ADPr on Ser-7]
